Data from patent US11766480B2, “Multivalent peptoid oligomers, pharmaceutical compositions and methods of using same” (NEW YORK UNIVERSITY, priority 2012, dated 2023).
Entries after “also recorded” stand apart in the source; their conditions may differ.

Assays:
LNCaP-abl cells = assay: Cell-cycle distribution by FACS / flow cytometry; assay type: cell-based, human; conditions: 1 μM, 48 h
Procedure: LNCaP-abl cells were grown on 10 cm culture dishes (BD Falcon) to approximately 70% confluence in RPMI media supplemented with 10% charcoal-stripped FBS, 1% L-Gln, and 1% PS. Cells were then treated with conjugate 1 or 2 to a final concentration of 1 μM and allowed to incubate at 37° C. for 48 h. Following treatment, cells were fixed and suspended in 2 mL of 1:3 HBSS:Phosphate-Citrate Buffer (pH 8.0) containing 0.1% Triton X-100. Cells were centrifuged (2,000 rpm for 5 min) and suspended in 1 mL of propidium-iodide solution (1 mg propidium iodine, 10 mg EDTA, 250 μL Igepal, and 2.2 μg μL-1 RNAase in 50 mL of PBS). Cells were then harvested for cell-cycle analysis by filtration (CellTrics, 100 μm) into conical tubes (Falcon) and analyzed by flow cytometry (Becton-Dickinson FACScalibur). All data were analyzed using FlowJo software.
The inventors analyzed cell-cycle distribution of LNCaP-abl cells treated with either oligomer 6 or 7 utilizing fluorescence-activated cell sorting (FACS) analysis. These studies provide a quantitative assessment of normal and apoptotic nuclei along with cell distribution in the G0/G1, S, and G2/M phases of the cell-cycle.

HEK293 cells = assay: Cell toxicity assay (CyQUANT cell viability), HEK293; assay type: cell-based, human; conditions: 1 μM, 72 hours
Procedure: (§1) To evaluate the general cell toxicity of oligomers 6 and 7, a cell viability assay was utilized.
(§2) HEK293 and PC3 cells were seeded in triplicate on 96-well plates (Corning) in DMEM and HAM'S—F media supplemented with 10% FBS, 1% L-Gln and 1% PS, respectively. HEK293 and PC3 cells were then treated with conjugates (1 μM and 20 μM, respectively) and allowed to incubate at 37° C. for 72 hours. Following treatment, relative cell viability was measured using the CyQUANT reagent according to the manufacturer's instructions. Fluorescence intensity was quantified as described above. All data were processed using GraphPad Prism.

PC3 cells = assay: Cell toxicity assay (CyQUANT cell viability), PC3; assay type: cell-based; conditions: 20 μM, 72 hours
Procedure: as §1, §2

AR = molecular target: T1, AR (Homo sapiens, UniProt P10275, T878A); assay: Chromatin immunoprecipitation of AR at the PSA enhancer in LNCaP-abl cells; assay type: cell-based; conditions: R-1881 10 nM alone, positive control
T1 construct: endogenous in cells; host or cells: LNCaP-abl
T1 sequence (P10275 1-920 T878A): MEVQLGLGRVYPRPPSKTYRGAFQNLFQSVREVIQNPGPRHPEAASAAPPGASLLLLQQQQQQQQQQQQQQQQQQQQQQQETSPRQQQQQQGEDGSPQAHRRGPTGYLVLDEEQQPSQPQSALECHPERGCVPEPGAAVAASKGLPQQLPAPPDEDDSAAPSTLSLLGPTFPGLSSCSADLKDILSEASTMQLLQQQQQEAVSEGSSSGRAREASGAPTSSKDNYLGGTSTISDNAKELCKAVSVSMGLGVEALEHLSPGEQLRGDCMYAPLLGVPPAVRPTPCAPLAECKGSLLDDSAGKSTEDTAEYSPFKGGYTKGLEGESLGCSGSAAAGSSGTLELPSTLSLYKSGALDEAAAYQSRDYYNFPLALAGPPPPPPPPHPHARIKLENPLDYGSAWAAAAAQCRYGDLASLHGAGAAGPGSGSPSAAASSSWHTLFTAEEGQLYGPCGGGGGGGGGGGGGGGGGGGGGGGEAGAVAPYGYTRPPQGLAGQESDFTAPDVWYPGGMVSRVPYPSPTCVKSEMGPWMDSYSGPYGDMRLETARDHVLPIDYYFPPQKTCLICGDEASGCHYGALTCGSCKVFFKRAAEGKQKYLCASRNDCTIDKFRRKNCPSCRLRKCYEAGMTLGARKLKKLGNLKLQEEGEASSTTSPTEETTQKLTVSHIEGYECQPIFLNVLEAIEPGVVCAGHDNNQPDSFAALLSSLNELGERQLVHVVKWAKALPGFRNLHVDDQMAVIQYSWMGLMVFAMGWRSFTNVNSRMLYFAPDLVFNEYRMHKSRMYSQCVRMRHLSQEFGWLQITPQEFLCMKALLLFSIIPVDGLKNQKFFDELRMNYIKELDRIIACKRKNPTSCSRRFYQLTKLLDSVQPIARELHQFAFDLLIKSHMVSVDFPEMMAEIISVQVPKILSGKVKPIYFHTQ
Procedure: Following treatment, proteins were double cross-linked with DSP (Pierce) for 20 min and 1% formalin for 10 min. Cells were lysed, and nuclei were collected, lysed in buffer (1% SDS, 50 mM Tris-HCl (pH 8.0), 10 mM EDTA), and sonicated for 12 min (30 s on, 30 s off) utilizing a Bioruptor sonicator (Diagenode, model XL). Sonicated lysates were precleared for 2 h with Protein A/G agarose beads blocked with salmon sperm DNA (Millipore). […] Control ChIP was concurrently performed with the same quantity of normal mouse and rabbit IgG sera. Immunocomplexes were then washed and cross-linking was reversed. DNA was isolated with a PCR purification kit (Qiagen) according to the manufacturer's instructions, and real-time PCR was performed. Relative enrichment of indicated genomic locus was calculated as a percentage of 4% input normalized to IgG. All data were processed using GraphPad Prism.

Row | SMILES | apoptotic cell population (LNCaP-abl cells) | cytotoxic effects in HEK293 cells (HEK293 cells) | cytotoxic effects in AR-deficient PC3 cells (PC3 cells) | AR recruitment to the PSA enhancer (AR)
1 | COCCN(CC(N)=O)C(=O)CN(CCOC)C(=O)CN(CCCn1cc([C@]2(O)CCC3C4CCC5=CC(=O)CC[C@]5(C)C4CC[C@@]32C)nn1)C(=O)CN(CCOC)C(=O)CN(CCOC)C(=O)CN(CCOC)C(=O)CN(CCOC)C(=O)CN(CCOC)C(=O)CN(CCOC)C(=O)CN(CCOC)C(=O)CN(CCOC)C(=O)CNCCCn1cc([C@]2(O)CCC3C4CCC5=CC(=O)CC[C@]5(C)C4CC[C@@]32C)nn1 (stereo partly shown) [Oligomer 6] | no increase in the apoptotic cell population | did not exhibit cytotoxic effects; also recorded: cytotoxicity was not observed | did not exhibit cytotoxic effects; also recorded: cytotoxicity was not observed | –
2 | COCCN1CC(=O)N(CCCn2cc([C@]3(O)CCC4C5CCC6=CC(=O)CC[C@]6(C)C5CC[C@@]43C)nn2)CC(=O)N(CCOC)CC(=O)N(CCOC)CC(=O)N(CCCn2cc([C@]3(O)CCC4C5CCC6=CC(=O)CC[C@]6(C)C5CC[C@@]43C)nn2)CC(=O)N(CCOC)CC1=O (stereo partly shown) [Oligomer 7] | no increase in the apoptotic cell population | did not exhibit cytotoxic effects; also recorded: cytotoxicity was not observed | did not exhibit cytotoxic effects; also recorded: cytotoxicity was not observed | –
3 | C[C@]1(O)CC[C@H]2[C@@H]3CCC4=CC(=O)CCC4=C3C=C[C@@]21C [Oligomer R-1881] | – | – | – | promoted AR recruitment
